Reference: patent publication US20240400641A1 (EMORY UNIVERSITY, published 2024)
Where no end group is shown, it is not given here.

Target: T1, mouse PD-L1 (mouse, UniProt Q9EP73 19-290)
T1 construct: whole, on cells; Endogenous protein of mouse tumor cell lines; also called PD-L1 on mouse pancreatic cancer KC, Panc02 and KPC cells
Experiment: peptide-IONP conjugates on KC and Panc02 cells, Prussian blue staining

T1 sequence (Q9EP73 19-290): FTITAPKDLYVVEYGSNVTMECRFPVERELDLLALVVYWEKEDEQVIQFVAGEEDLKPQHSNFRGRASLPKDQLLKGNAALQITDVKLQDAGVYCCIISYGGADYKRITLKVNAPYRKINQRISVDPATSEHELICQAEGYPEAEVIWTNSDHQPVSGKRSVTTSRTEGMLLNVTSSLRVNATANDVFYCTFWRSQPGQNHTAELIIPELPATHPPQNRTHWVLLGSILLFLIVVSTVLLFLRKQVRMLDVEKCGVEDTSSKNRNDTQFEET

binding result | Binder
binds | NWNRLSPSNQTEKQAAPHHHHCGAISLHPKAKIEE (not fully specified; also: FITC label in competition assay, place not given here, also called PDIY; PD-1 like peptide) [PD-1 (Y) peptide]
binds | NWNRLSPSNQTEKQAACGAISLHPKAKIEESPGHHHH (also: FITC label in competition assay, place not given here, bound via His tag to NTA-Cu on IONPs or NTA-Ni beads, Tested as FITC-labelled free peptide, as IONP conjugate and on NTA-Ni beads; also called PD-1 like peptide; PD-1 Lin-IONP (when conjugated to iron oxide nanoparticles)) [PD-1 (Lin) peptide]
